IntAct's records for PubMed 13679922

B1: Cullin-3 (Caenorhabditis elegans), Q17391 (parent)
chain: MSGRSGNGGQQKMRIRPFMATIDEQYVTQTWELLKRAIQEIQRKNNSGLSFEELYRNAYTMVLHKHGERLYNGLKDVIQDHMASVRIRIIESMNSGSFLETVAESWADHTVAMVMIRDILMYMDRIYVAQNNHVLPVYNLGLDAYRTEILRQNGIGDRIRDALLELIKLDRKSNQINWHGIKNACDMLISLGIDSRTVYEDEFERPLLKETSDYYRDVCKNWLSGDNDACFYLAQVEIAMHDEASRASRYLDKMTEAKILQVMDDVMVAEHIQTIVYMQNGGVKFMLEHKKIEDLTRIFRIFKRIGDSVTVPGGGLKALLKAVSEYLNETGSNIVKNEDLLKNPVNFVNELLQLKDYFSSLLTTAFADDRDFKNRFQHDFETFLNSNRQSPEFVALYMDDMLRSGLKCVSDAEMDNKLDNVMILFRYLQEKDVFEKYFKQYLAKRLLLDKSCSDDVEKALLAKLKTECGCQFTQKLENMFRDKELWLTLATSFRDWREAQPTKMSIDISLRVLTAGVWPTVQCNPVVLPQELSVAYEMFTQYYTEKHTGRKLTINTLLGNADVKATFYPPPKASMSNEENGPGPSSSGESMKERKPEHKILQVNTHQMIILLQFNHHNRISCQQLMDELKIPERELKRNLQSLALGKASQRILVRKNKGKDAIDMSDEFAVNDNFQSKLTRVKVQMVTGKVESEPEIRETRQKVEDDRKLEVEAAIVRIMKARKKLNHNNLVAEVTQQLRHRFMPSPIIIKQRIETLIEREYLARDEHDHRAYQYIA
partner: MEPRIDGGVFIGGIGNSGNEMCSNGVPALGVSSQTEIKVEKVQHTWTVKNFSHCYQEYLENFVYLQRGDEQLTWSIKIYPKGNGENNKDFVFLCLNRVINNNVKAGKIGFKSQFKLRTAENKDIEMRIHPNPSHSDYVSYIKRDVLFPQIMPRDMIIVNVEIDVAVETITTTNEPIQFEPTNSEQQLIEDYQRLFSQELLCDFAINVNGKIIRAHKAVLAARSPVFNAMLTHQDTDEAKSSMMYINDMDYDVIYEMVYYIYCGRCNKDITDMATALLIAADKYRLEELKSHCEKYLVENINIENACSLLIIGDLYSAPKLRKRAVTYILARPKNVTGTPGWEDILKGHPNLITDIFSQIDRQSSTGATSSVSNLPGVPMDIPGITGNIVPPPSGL
B2: Meiotic spindle formation protein mei-1 (Caenorhabditis elegans), P34808-2 (parent)
chain: MNGDVQSVIRGYLERAQVAKTMSDAGRWNEAGDLLRQLMTDVKSCKISASNRDEHDARNTFLRALEANLKLVQQNVRDEDDLHEAMTRQSGSPEPPADPDVWSKPSPPLPSSSKFGATKKGVGAAGPRPREISKSTSSMSTNPADVKPANPTQGILPQNSAGDSFDASAYDAYIVQAVRGTMATNTENTMSLDDIIGMHDVKQVLHEAVTLPLLVPEFFQGLRSPWKAMVLAGPPGTGKTLIARAIASESSSTFFTVSSTDLSSKWRGDSEKIVRLLFELARFYAPSIIFIDEIDTLGGQRGNSGEHEASRRVKSEFLVQMDGSQNKFDSRRVFVLAATNIPWELDEALRRRFEKRIFIPLPDIDARKKLIEKSMEGTPKSDEINYDDLAARTEGFSGADVVSLCRTAAINVLRRYFRYDTKSLRGGELTAAMESLKAELVRNIDFEAALQAVSPSAGPDTMLKCKEWCDSFGAM
partner: B1 partner
B3: Cullin-3 (Caenorhabditis elegans), Q17391 (parent)
chain: B1 chain
partner: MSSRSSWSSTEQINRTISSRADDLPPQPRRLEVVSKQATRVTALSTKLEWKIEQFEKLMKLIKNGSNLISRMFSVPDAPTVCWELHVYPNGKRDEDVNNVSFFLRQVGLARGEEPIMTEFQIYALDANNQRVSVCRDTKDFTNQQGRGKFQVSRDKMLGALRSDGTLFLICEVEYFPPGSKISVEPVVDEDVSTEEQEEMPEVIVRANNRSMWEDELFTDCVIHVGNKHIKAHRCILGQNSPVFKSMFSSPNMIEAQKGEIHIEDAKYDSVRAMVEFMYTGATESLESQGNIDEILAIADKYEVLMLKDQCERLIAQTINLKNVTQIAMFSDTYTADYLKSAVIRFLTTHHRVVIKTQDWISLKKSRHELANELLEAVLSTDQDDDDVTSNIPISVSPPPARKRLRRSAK
B4: Protein maternal effect lethal 26 (Caenorhabditis elegans), Q94420 (parent)
chain: B1 partner
partner: B2 chain

Variants of: B1
Conditions: with mel26_caeel mel-26, Q94420
L49A was tested, and the “effect of a mutation on the interaction” value was “decreasing interaction”.
With E52A the “effect of a mutation on the interaction” value was “decreasing interaction”.

Variants of: B2
Conditions: with mel26_caeel mel-26, Q94420
For MNGDVQSVIRGYLERAQVAKTMSDAGRWNEAGDLLRQLMTDVKSCKISASNRDEHDARNTFLRALEANLKLVQQNVRDEDDLHEAMTRQSGSPEPPADLDVWSKPSPPLPSSSKFGATKKGVGAAGPRPREISKSTSSMSTNPADVKPANPTQGILPQNSAGDSFDASAYDAYIVQAVRGTMATNTENTMSLDDIIGMHDVKQVLHEAVTLPLLVPEFFQGLRSPWKAMVLAGPPGTGKTLIARAIASESSSTFFTVSSTDLSSKWRGDSEKIVRLLFELARFYAPSIIFIDEIDTLGGQRGNSGEHEASRRVKSEFLVQMDGSQNKFDSRRVFVLAATNIPWELDEALRRRFEKRIFIPLPDIDARKKLIEKSMEGTPKSDEINYDDLAARTEGFSGADVVSLCRTAAINVLRRYFRYDTKSLRGGELTAAMESLKAELVRNIDFEAALQAVSPSAGPDTMLKCKEWCDSFGAM [P99L], the “effect of a mutation on the interaction” value was “decreasing interaction”.

Variants of: B3
Conditions: with bat42_caeel bath-42, P34371
L49A was tested, and the “effect of a mutation on the interaction” value was “decreasing interaction”.
For E52A, the “effect of a mutation on the interaction” value was “decreasing interaction”.

Variants of: B4
Conditions: with mei-1, P34808-2
In the case of MEPRIDGGVFIGGIGNSGNEMCSNGVPALGVSSQTEIKVEKVQHTWTVKNFSHCYQEYLENFVYLQRGDEQLTWSIKIYPKGNGENNKDFVFLYLNRVINNNVKAGKIGFKSQFKLRTAENKDIEMRIHPNPSHSDYVSYIKRDVLFPQIMPRDMIIVNVEIDVAVETITTTNEPIQFEPTNSEQQLIEDYQRLFSQELLCDFAINVNGKIIRAHKAVLAARSPVFNAMLTHQDTDEAKSSMMYINDMDYDVIYEMVYYIYCGRCNKDITDMATALLIAADKYRLEELKSHCEKYLVENINIENACSLLIIGDLYSAPKLRKRAVTYILARPKNVTGTPGWEDILKGHPNLITDIFSQIDRQSSTGATSSVSNLPGVPMDIPGITGNIVPPPSGL [C94Y], the “effect of a mutation on the interaction” value is reported as “decreasing interaction”.
